pKd: −log10 of the molar value.
Molecular target: Karyopherin-β2 (human) (UniProt Q92973)
Test: ITC

Chain of UniProt Q92973 (Q92973 9-898): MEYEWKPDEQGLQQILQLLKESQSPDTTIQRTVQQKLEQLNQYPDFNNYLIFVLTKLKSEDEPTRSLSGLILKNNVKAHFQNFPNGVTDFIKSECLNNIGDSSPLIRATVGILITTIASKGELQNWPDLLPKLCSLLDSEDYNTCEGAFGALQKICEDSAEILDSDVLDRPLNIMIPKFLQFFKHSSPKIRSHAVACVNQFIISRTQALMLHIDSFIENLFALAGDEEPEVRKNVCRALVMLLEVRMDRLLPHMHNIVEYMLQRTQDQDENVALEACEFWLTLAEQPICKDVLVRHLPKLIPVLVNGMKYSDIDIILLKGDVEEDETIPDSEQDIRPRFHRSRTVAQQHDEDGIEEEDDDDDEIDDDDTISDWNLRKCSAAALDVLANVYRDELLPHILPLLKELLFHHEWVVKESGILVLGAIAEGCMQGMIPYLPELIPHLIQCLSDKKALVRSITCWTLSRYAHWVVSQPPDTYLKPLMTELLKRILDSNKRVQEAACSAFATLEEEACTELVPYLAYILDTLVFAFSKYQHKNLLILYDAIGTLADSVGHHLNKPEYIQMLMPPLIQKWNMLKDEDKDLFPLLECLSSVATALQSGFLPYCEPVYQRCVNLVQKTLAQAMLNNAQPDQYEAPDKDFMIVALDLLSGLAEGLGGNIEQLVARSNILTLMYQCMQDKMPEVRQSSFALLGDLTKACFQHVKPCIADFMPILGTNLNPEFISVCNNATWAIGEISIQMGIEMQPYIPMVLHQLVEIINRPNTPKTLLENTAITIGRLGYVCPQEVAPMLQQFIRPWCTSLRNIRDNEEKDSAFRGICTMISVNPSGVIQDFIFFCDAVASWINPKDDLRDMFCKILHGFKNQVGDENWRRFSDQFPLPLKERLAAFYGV

Substance | pKd
MBP-H3 Tail(1–47) K23A (from UniProt P68431 2-48) (domain or fragment) | 6.83
MBP-H3 Tail(1–47) K23A, R26A, K27A (from UniProt P68431 2-48) (domain or fragment) | 6.92
MBP-H3 Tail(1–47) R17A (from UniProt P68431 2-48) (domain or fragment) | 6.41
MBP-H3 Tail(1–47) wild-type (from UniProt P68431 2-48) (domain or fragment) | 7.11

The next lines start with the values.

pKd | Substance
6.92 | MBP-H3 Tail(1–47) K18A (from UniProt P68431 2-48) (domain or fragment)
6.88 | MBP-H3 Tail(1–47) K27A (from UniProt P68431 2-48) (domain or fragment)
6.91 | MBP-H3 Tail(1–47) R26A (from UniProt P68431 2-48) (domain or fragment)
